Laboratory results as given in the supplement of paper PMC7877785.
± gives the uncertainty stated by the source.

Test: self-splicing fitness, log relative to wild type (ln ratio); higher = more splicing; Tetrahymena group I intron in knt gene, E. coli kanamycin selection, DiMSum; sequences stand for … in CUCUCU…GGAGGGAAAAGUUAUCAGGCAUGCACCUGGUAGCUAGUCUUUAAACCAAUAGAUUGCAUCGGUUUAAAAGGCAAGACCGUCAAAUUGCGGGAAAGGGGUCAACAGCCGUUCAGUACCAAGUCUCAGGGGAAACUUUGAGAUGGCCUUGCAAAGGGUAUGGUAAUAAGCUGACGGACAUGGUCCUAACCACGCAGCCAAGUCCUAAGUCAACAGAUCUUCUGUUGAUAUGGAUGCAGUUCACAGACUAAAUGUCGGUCGGGGAAGAUGUAUUCUUCUCAUAAGAUAUAGUCGGACCUCUCCUUAAUGGGAGCUAGCGGAUGAAGUGAUGCAACACUGGAGCCGCUGGGAACUAAUUUGUAUGCGAAAGUAUAUUGAUUAGUUUUGGAGUACUCGUGGUCG
How it was run: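 Pooled colonies went to amplicon sequencing on an Illumina HiSeq 2500 after six replicate transformations. The plates were LB agar with 100 μg/mL carbenicillin, 50 μM IPTG and 0.2% rhamnose, with or without 25 μg/mL kanamycin, incubated overnight at 37°C or 30°C. The E. coli BL21(DE3) library had all eight P1ex-region intron nucleotides randomised, the intron placed in the knt kanamycin-resistance gene on pET-22b(+). DiMSum fitness is the error-weighted combination of replicate fold changes, kanamycin against none, normalised to wild type.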

Row | Sequence | self-splicing fitness (ln) (30 °C) | self-splicing fitness (ln) (37 °C)
1 | GGACAGCAAUAUUACGGCGC | 0.0232 ± 0.12 | 0.203 ± 0.13
2 | UGAAAGCAAUAUUACGGAUC | -3.19 ± 0.24 | -2.83 ± 0.33
3 | CACGAGCAAUAUUACGUAUC | -2.94 ± 0.38 | -2.81 ± 0.36
4 | GUAGAGCAAUAUUACGUCAG | -3.1 ± 0.3 | -2.07 ± 0.23
5 | CCGGAGCAAUAUUACGUAAC | -2.38 ± 0.38 | -1.45 ± 0.43
6 | AUCGAGCAAUAUUACGGUAA | -2.41 ± 0.29 | -3.15 ± 0.35
7 | CUCUAGCAAUAUUACGAGAU | -3.29 ± 0.43 | -2.94 ± 0.31
8 | UCUGAGCAAUAUUACGUGAC | -2.99 ± 0.2 | -2.97 ± 0.27
9 | AUCAAGCAAUAUUACGAGCA | -1.3 ± 0.075 | -0.375 ± 0.076
10 | CUUUAGCAAUAUUACGCUAC | -2.83 ± 0.35 | –
11 | UACUAGCAAUAUUACGGAGG | -2.77 ± 0.17 | -1.28 ± 0.13
12 | UUACAGCAAUAUUACGUCAC | – | -1.8 ± 0.23
13 | CAUAAGCAAUAUUACGCUUA | -3.59 ± 0.29 | -2.65 ± 0.26
14 | AUAGAGCAAUAUUACGUUAC | -1.38 ± 0.19 | -1.37 ± 0.3
15 | UCUCAGCAAUAUUACGUUUU | -3.4 ± 0.15 | -3.25 ± 0.21
16 | UACAAGCAAUAUUACGUAUG | -3.68 ± 0.17 | -2.11 ± 0.14
17 | AAAAAGCAAUAUUACGGGUU | -1.38 ± 0.075 | -1.37 ± 0.11
18 | AUGAAGCAAUAUUACGGUUC | -1.29 ± 0.099 | -1.8 ± 0.15
19 | UUGGAGCAAUAUUACGACUG | -0.79 ± 0.46 | 0.294 ± 0.47
20 | UCUAAGCAAUAUUACGCCAU | -3.76 ± 0.46 | -2.37 ± 0.42
21 | CGAUAGCAAUAUUACGGUGC | -3.57 ± 0.3 | -2.23 ± 0.24
22 | GUCAAGCAAUAUUACGCUCC | -1.87 ± 0.28 | -1.62 ± 0.29
23 | GAUGAGCAAUAUUACGUGUG | -2.57 ± 0.14 | -1.45 ± 0.12
24 | GGCCAGCAAUAUUACGUGCU | -3.59 ± 0.15 | -2.52 ± 0.2
25 | AAUCAGCAAUAUUACGGUUG | -1.91 ± 0.082 | -0.913 ± 0.1
26 | GACCAGCAAUAUUACGAAGC | -0.849 ± 0.062 | -0.511 ± 0.093

Row | Sequence | self-splicing fitness (ln) (30 °C) | self-splicing fitness (ln) (37 °C)
27 | AAGCAGCAAUAUUACGGUAU | -1.55 ± 0.055 | -1.13 ± 0.078
28 | GUUAAGCAAUAUUACGCGGG | -2.2 ± 0.12 | -1.69 ± 0.16
29 | AGCUAGCAAUAUUACGCCGG | -2.94 ± 0.2 | -1.85 ± 0.34
30 | GGUAAGCAAUAUUACGAUAC | -0.265 ± 0.12 | -0.608 ± 0.16
31 | CGUGAGCAAUAUUACGUUCG | -2.61 ± 0.15 | -3.09 ± 0.28
32 | GGCGAGCAAUAUUACGUUCU | -1.02 ± 0.051 | -0.335 ± 0.07
33 | CGGUAGCAAUAUUACGCCCU | 0.24 ± 0.19 | 0.785 ± 0.29
34 | UUGCAGCAAUAUUACGUGCA | -2.15 ± 0.13 | -1.27 ± 0.12
35 | AUCGAGCAAUAUUACGUCUA | -3.26 ± 0.32 | -0.994 ± 0.13
36 | UCUUAGCAAUAUUACGUACU | -2.72 ± 0.17 | -1.66 ± 0.18
37 | CCUGAGCAAUAUUACGACAG | -1.3 ± 0.14 | -0.663 ± 0.15
38 | AUAUAGCAAUAUUACGCGAC | -2.73 ± 0.22 | -2.32 ± 0.21
39 | GGAUAGCAAUAUUACGAAAG | -2.79 ± 0.48 | –
40 | AGGCAGCAAUAUUACGCCCU | -2.89 ± 0.4 | –
41 | AGUCAGCAAUAUUACGAUCA | 0.171 ± 0.099 | 0.226 ± 0.11
42 | GCCGAGCAAUAUUACGUUAU | -2.06 ± 0.098 | -2.43 ± 0.18
43 | UCACAGCAAUAUUACGGGGG | -2.39 ± 0.15 | -2.03 ± 0.16
44 | GCCGAGCAAUAUUACGCUUU | -1.61 ± 0.082 | -0.235 ± 0.093
45 | UUGUAGCAAUAUUACGCGAG | -1.17 ± 0.11 | -0.735 ± 0.099
46 | GAAAAGCAAUAUUACGCCCU | 0.325 ± 0.12 | -0.233 ± 0.14
47 | CCCCAGCAAUAUUACGCGAA | -4.21 ± 0.15 | -1.69 ± 0.14
48 | CCAAAGCAAUAUUACGAAGC | -3.15 ± 0.36 | –
49 | UUUAAGCAAUAUUACGCUAC | -3.5 ± 0.32 | –
50 | UUACAGCAAUAUUACGCUAC | -3.71 ± 0.22 | -1.96 ± 0.24
51 | CAUAAGCAAUAUUACGAUUG | -2.62 ± 0.095 | -1.27 ± 0.11
52 | UGAUAGCAAUAUUACGCAAG | – | -2.3 ± 0.26

Row | Sequence | self-splicing fitness (ln) (30 °C) | self-splicing fitness (ln) (37 °C)
53 | GCCGAGCAAUAUUACGCAAU | -2.79 ± 0.2 | -1.35 ± 0.15
54 | GACAAGCAAUAUUACGCUCC | -3.8 ± 0.24 | -2.56 ± 0.27
55 | CAUUAGCAAUAUUACGAUUA | -1.47 ± 0.085 | -0.981 ± 0.081
56 | GUGUAGCAAUAUUACGAGAU | -2.83 ± 0.26 | -1.23 ± 0.22
57 | CACGAGCAAUAUUACGCGAU | -3.23 ± 0.21 | -2.51 ± 0.41
58 | CUGAAGCAAUAUUACGGGGG | -1.46 ± 0.14 | -1.28 ± 0.18
59 | CAUUAGCAAUAUUACGGUAU | – | -0.876 ± 0.12
60 | CUCCAGCAAUAUUACGGUGG | -3.79 ± 0.19 | -2.42 ± 0.18
61 | CAACAGCAAUAUUACGGACC | -2.98 ± 0.27 | -0.864 ± 0.23
62 | CAAAAGCAAUAUUACGAAGU | -3.16 ± 0.15 | -2.23 ± 0.13
63 | CAAAAGCAAUAUUACGGACC | -3 ± 0.21 | -1.98 ± 0.2
64 | GCGUAGCAAUAUUACGCCAC | – | -2.26 ± 0.29
65 | UCCAAGCAAUAUUACGGUAA | -0.334 ± 0.067 | 0.257 ± 0.076
66 | UCCCAGCAAUAUUACGCGCA | -0.296 ± 0.093 | -0.219 ± 0.089
67 | UACCAGCAAUAUUACGAAAC | -2.69 ± 0.23 | -2.14 ± 0.27
68 | UGUGAGCAAUAUUACGUCCU | -0.548 ± 0.1 | -1.51 ± 0.18
69 | CGUGAGCAAUAUUACGUAUU | -3.5 ± 0.4 | -3.11 ± 0.35
70 | GAGCAGCAAUAUUACGUGCA | -1.15 ± 0.071 | -0.471 ± 0.081
71 | UACGAGCAAUAUUACGGCAG | -2.22 ± 0.23 | -1.65 ± 0.21
72 | GUUGAGCAAUAUUACGUGAU | -2.14 ± 0.19 | -1.6 ± 0.27
73 | UUUCAGCAAUAUUACGGGAC | -2.81 ± 0.21 | -1.4 ± 0.19
74 | AUCCAGCAAUAUUACGUCGG | -2.71 ± 0.089 | -2.43 ± 0.13
75 | GGUCAGCAAUAUUACGUCUU | 0.322 ± 0.078 | 0.402 ± 0.089
76 | UUGGAGCAAUAUUACGGUUG | -3.97 ± 0.28 | -3.38 ± 0.31
77 | GGAAAGCAAUAUUACGGCUC | -0.254 ± 0.13 | 0.018 ± 0.16
78 | UGAGAGCAAUAUUACGCCAG | -3.52 ± 0.42 | -2.41 ± 0.35
